T1: cynomolgus SIRPα-his protein (cynomolgus)
T1 construct: also called Cyno SIRPα-his; monkey SIRPα
T1 chain: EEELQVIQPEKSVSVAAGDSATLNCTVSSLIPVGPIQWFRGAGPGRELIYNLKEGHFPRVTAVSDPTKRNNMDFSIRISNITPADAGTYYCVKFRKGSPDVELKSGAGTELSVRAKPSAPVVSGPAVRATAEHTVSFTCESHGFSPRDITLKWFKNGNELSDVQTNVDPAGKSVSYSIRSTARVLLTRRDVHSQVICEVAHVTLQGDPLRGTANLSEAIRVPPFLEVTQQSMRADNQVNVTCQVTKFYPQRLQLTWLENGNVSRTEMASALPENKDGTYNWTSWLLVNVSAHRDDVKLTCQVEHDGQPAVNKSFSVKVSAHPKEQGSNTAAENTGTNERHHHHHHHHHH

T2: mouse SIRPα-his (mouse, UniProt P97797 35-363, limits assumed)
T2 chain: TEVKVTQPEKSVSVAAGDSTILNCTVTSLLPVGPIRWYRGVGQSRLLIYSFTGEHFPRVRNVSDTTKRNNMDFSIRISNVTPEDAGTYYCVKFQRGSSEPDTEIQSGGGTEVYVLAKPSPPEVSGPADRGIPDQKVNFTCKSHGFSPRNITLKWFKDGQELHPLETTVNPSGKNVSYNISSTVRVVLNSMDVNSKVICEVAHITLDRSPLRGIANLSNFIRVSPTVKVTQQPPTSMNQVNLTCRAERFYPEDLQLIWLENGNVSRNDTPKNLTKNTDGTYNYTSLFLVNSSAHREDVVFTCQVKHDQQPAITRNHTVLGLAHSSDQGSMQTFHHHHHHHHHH


How the values were obtained:
[1] = molecular target: human SIRPα-isoform 2-his protein (human); assay: indirect ELISA on coated human SIRPα-isoform 2-his, OD(450-630); curve not visible in the scan
[2] = molecular target: T1, cynomolgus SIRPα-his protein; assay: indirect ELISA on coated cynomolgus SIRPα-his, OD(450-630); curve not visible in the scan
[3] = molecular target: T3, full length human SIRPα on cell membranes (HEK293-SIRPα cells; 293F-SIRPα cells) (human, UniProt P78324 31-504); assay: cell based binding FACS on HEK293-SIRPα cells, MFI; curve not visible in the scan
T3 construct: whole, on cells; also called cell surface human SIRPα; cell surface SIRPα

[4] = molecular target: T4, human SIRPα-his protein (human, UniProt P78324 31-370); assay: competitive ELISA on coated human SIRPα-his; blocked ligand: biotin-labeled human CD47-his, OD(450-630); curve not visible in the scan
[5] = molecular target: T5, full length human SIRPγ endogenously expressed on Jurkat cells (human, UniProt Q9P1W8 29-387); assay: cell based binding FACS on Jurkat cells (endogenous human SIRPγ), MFI; curve not separable in the scan; paragraph 186 says no binding
T5 construct: whole, on cells; also called human SIRPγ expressed on Jurkat cells

[6] = molecular target: T3, full length human SIRPα on cell …; assay: cell based blocking FACS on 293F-SIRPα cells; blocked ligand: biotin-labeled human CD47-Fc, MFI; curve only in faint traces
[7] = molecular target: T6, recombinant human SIRPα-Fc protein (human, biotin-labeled (sites not given)); assay: capture ELISA, antibody captured on anti-mouse IgG F(ab')2, biotin-labeled human SIRPα-Fc in solution, OD(450-630); curve not visible in the scan
T6 construct: also called biotin-labeled human SIRPα-Fc protein

[8] = molecular target: T7, full length human SIRPβ on cell membranes (HEK293-SIRPβ cells; 293F cells expressing human SIRPβ) (human, UniProt O00241 30-398); assay: cell based binding FACS on HEK293-SIRPβ cells, MFI; curve not visible in the scan
T7 construct: whole, on cells; also called cell surface human SIRPβ

[9] = molecular target: human SIRPγ-his protein (human, UniProt Q9P1W8 29-360, limits assumed); assay: SPR (Biacore T200), antibody captured on Protein A chip, human SIRPγ-his flowed
[10] = molecular target: T5, full length human SIRPγ endogenously …; assay: cell based binding FACS on Jurkat cells (endogenous human SIRPγ), MFI; curve flat at MFI about 35 up to about 13 nM, rises to about 115 only at the last point (about 67 nM); paragraph 213 says no binding
[11] = molecular target: T4, human SIRPα-his protein; assay: SPR (Biacore T200); antibody captured on Protein A chip, human SIRPα-his flowed from 200 nM; 1:1 Langmuir fit
[12] = molecular target: T3, full length human SIRPα on cell …; assay: cell based blocking FACS on 293F-SIRPα cells; blocked ligand: human CD47 protein (CD47-Fc), MFI
[13] = molecular target: human SIRPα protein (soluble, used on 293F-CD47 cells) (human, UniProt P78324 31-370, limits assumed); assay: cell based blocking FACS on 293F-CD47 cells; soluble human SIRPα protein blocked from binding cell surface human CD47, MFI
[14] = molecular target: T8, human FcRn protein (Cat #FCM-H5286, Acro biosystems Inc.) (human, UniProt P55899 24-297; P61769 21-119); assay: SPR (Biacore); human FcRn covalently linked to CM5 chip, antibody flowed from 62.5 µg/ml; pH 6.0
[15] = molecular target: human SIRPα-V8-his protein (human, UniProt P78324 31-370, limits assumed); assay: indirect ELISA on coated human SIRPα-V8-his, OD(450-630)
[16] = molecular target: T2, mouse SIRPα-his; assay: indirect ELISA on coated mouse SIRPα-his, OD(450-630)
[17] = molecular target: T7, full length human SIRPβ on cell …; assay: cell based binding FACS on 293F cells expressing human SIRPβ, MFI
[18] = molecular target: human SIRPβ-his protein (human, UniProt O00241 30-371); assay: SPR (Biacore T200); antibody captured on Protein A chip, human SIRPβ-his flowed from 200 nM; 1:1 Langmuir fit
[19] = molecular target: human SIRPα-isoform 2-his protein (human); assay: indirect ELISA on coated human SIRPα-isoform 2-his, OD(450-630)
[20] = molecular target: T1, cynomolgus SIRPα-his protein; assay: indirect ELISA on coated cynomolgus SIRPα-his, OD(450-630); curve flat at the baseline (see non_binding)
[21] = molecular target: T8, human FcRn protein (Cat #FCM-H5286, …); assay: SPR (Biacore); human FcRn covalently linked to CM5 chip, antibody flowed from 62.5 µg/ml; pH 7.4
[22] = molecular target: T3, full length human SIRPα on cell …; assay: cell based binding FACS on 293F cells expressing human SIRPα, MFI
[23] = molecular target: T5, full length human SIRPγ endogenously …; assay: cell based binding FACS on Jurkat cells (endogenous human SIRPγ), MFI; curve flat at MFI about 35 up to about 13 nM, rises to about 185 only at the last point (about 67 nM); paragraph 213 says no binding
[24] = molecular target: T8, human FcRn protein (Cat #FCM-H5286, …); assay: SPR (Biacore); human FcRn covalently linked to CM5 chip, antibody flowed from 62.5 µg/ml; pH 6.0; pH 6.0

human SIRPβ-his protein, sequence (O00241 other isoform, or with tags, fused parts or gaps limits assumed): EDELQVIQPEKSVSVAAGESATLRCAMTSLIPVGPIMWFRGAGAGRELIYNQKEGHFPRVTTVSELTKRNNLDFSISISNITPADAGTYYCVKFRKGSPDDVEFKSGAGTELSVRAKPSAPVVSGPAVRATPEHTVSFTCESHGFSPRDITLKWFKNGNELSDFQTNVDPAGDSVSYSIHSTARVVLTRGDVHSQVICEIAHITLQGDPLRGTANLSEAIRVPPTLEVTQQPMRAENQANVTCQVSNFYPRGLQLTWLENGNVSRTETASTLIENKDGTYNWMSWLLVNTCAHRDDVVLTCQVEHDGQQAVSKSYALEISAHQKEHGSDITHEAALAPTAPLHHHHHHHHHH
T8 sequence (P55899 24-297 limits assumed, chain 1 of 2): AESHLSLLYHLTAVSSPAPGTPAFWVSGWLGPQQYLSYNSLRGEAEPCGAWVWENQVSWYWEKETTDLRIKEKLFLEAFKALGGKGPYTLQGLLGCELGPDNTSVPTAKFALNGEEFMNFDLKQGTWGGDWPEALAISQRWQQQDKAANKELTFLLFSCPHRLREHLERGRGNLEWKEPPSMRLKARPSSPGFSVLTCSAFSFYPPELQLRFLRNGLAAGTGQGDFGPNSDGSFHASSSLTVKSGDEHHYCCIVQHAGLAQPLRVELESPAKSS
T8 sequence (P61769 21-119 limits assumed, chain 2 of 2): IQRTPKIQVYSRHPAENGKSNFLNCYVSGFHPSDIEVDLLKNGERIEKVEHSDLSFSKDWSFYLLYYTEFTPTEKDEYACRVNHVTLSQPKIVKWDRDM
human SIRPα-isoform 2-his protein (human), sequence (chain, as listed by the source limits assumed): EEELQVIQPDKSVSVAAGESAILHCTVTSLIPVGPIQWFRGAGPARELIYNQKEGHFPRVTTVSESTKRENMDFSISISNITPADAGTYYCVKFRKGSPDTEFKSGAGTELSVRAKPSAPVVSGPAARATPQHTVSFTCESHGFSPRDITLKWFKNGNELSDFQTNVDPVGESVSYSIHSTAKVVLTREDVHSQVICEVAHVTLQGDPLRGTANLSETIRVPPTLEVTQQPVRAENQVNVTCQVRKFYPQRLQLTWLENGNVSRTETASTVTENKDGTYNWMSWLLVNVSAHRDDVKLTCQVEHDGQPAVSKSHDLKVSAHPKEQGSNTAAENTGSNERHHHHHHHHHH
T4 sequence (P78324 other isoform, or with tags, fused parts or gaps limits assumed): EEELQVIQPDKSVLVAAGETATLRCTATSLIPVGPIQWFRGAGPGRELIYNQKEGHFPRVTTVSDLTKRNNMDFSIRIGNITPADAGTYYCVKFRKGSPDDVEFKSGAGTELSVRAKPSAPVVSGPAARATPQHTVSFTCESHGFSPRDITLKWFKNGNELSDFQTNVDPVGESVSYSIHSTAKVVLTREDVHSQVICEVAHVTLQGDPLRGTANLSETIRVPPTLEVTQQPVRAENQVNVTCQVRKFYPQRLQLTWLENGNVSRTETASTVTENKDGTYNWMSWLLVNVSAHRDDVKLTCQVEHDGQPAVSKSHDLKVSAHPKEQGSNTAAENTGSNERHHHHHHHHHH
T3 sequence (P78324 31-504): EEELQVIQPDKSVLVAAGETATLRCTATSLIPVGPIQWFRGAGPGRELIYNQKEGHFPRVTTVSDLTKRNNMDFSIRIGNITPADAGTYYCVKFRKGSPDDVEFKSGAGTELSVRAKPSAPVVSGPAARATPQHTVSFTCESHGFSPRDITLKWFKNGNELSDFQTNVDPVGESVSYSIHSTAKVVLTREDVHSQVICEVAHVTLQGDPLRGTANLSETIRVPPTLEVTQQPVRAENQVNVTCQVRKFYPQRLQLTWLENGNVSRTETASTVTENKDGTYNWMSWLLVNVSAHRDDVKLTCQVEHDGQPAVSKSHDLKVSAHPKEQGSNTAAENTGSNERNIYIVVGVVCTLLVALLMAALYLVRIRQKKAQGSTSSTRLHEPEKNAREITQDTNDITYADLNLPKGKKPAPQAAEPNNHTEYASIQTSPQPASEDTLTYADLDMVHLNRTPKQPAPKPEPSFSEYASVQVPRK
T5 sequence (Q9P1W8 29-387): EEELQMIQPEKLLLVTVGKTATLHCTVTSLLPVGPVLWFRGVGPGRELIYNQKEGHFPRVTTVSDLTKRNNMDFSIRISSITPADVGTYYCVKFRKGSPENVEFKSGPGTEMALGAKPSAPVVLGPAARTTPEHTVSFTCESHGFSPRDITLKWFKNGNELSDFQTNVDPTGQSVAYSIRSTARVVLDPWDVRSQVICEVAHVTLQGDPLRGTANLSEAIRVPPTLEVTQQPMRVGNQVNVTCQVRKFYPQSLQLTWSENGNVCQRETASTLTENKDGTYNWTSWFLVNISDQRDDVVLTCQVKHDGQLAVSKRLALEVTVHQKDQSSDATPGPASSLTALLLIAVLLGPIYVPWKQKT
T7 sequence (O00241 30-398): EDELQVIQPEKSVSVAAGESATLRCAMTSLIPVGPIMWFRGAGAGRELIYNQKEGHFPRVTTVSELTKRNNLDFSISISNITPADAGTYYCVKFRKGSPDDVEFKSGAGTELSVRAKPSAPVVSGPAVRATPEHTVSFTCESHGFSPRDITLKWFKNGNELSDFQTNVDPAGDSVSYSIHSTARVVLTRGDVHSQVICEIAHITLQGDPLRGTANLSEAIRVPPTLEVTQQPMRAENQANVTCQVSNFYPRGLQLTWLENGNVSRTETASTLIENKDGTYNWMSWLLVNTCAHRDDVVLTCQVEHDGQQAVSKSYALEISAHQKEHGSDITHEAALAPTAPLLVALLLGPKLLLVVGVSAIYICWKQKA
human SIRPγ-his protein, sequence (Q9P1W8 29-360 limits assumed): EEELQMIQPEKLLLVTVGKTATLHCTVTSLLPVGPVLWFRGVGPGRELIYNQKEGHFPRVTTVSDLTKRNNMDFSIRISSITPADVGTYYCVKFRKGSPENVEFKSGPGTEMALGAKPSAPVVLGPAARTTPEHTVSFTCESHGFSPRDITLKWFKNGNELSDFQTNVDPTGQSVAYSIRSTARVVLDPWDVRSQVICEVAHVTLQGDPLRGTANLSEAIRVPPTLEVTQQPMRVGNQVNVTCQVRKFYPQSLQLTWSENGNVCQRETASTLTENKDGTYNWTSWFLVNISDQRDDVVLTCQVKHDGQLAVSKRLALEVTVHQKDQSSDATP
human SIRPα-V8-his protein, sequence (P78324 other isoform, or with tags, fused parts or gaps limits assumed): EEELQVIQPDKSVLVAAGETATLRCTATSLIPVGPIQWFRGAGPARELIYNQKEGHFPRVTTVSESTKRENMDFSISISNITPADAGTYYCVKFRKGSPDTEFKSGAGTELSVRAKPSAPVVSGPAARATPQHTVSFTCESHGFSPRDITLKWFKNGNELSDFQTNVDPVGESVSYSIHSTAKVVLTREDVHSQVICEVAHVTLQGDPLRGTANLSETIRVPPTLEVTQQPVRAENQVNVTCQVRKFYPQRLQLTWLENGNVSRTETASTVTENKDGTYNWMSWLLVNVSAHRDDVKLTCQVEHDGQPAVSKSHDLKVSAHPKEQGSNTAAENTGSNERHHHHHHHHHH
human SIRPα protein (soluble, used on 293F-CD47 cells), sequence (P78324 31-370 limits assumed): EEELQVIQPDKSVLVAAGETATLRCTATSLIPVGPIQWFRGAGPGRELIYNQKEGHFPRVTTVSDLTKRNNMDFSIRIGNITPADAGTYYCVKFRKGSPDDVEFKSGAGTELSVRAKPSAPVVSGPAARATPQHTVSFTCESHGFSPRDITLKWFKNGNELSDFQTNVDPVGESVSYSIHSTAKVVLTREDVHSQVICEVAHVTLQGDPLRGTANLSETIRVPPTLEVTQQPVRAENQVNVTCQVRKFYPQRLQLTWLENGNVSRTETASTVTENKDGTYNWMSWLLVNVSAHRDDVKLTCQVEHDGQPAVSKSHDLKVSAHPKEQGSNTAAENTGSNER
T6 sequence (chain, as listed by the source limits assumed): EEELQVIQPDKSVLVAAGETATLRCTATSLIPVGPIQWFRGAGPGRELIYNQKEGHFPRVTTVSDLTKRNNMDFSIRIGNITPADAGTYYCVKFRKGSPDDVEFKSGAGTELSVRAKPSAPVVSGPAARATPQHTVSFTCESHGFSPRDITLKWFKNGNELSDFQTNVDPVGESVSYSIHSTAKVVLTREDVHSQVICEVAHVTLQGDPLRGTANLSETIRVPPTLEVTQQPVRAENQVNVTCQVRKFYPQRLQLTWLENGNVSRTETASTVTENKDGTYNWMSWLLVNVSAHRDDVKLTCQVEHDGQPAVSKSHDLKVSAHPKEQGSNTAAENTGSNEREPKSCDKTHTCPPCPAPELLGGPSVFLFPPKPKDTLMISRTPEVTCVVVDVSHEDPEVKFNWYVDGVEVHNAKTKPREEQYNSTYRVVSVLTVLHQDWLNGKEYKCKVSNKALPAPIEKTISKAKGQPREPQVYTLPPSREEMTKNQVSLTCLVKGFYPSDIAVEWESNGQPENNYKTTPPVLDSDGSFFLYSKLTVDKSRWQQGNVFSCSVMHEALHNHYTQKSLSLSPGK

Binder	binding result [9]	Kd [11] [nM]	koff [11] [s⁻¹]	kon [11] [M⁻¹ s⁻¹]	IC50 [12] [nM]	IC50 [13] [nM]	EC50 [15] [nM]	binding result [16]	EC50 [17] [nM]	Kd [18] [nM]	koff [18] [s⁻¹]	kon [18] [M⁻¹ s⁻¹]	EC50 [19] [nM]	EC50 [20] [nM]	EC50 [22] [nM]	also measured
E1H10B7C7 (antibody, V domains shown) VH: QVQLVQSGAEVKKPGASVKVSCKASGYTFTSYAMQWVRQAPGQRLEWMGWIIAGNGDTKYSQNFQDRVTLTRDTSANTAYMDLSGLRSEDTAVYYCARGSGFSGYGYFDKWGQGTLVTVSS VL: DIQMTQSPSSLSASVGDRVTITCRASHSISSYLNWYQQKPGKVPKLLIYASSSLQSGVPSRFSGNGSGTDFTLIISSLQPEDFATYYCQQSHSIPLTFGGGTKVEIK	–	–	–	–	–	–	–	–	–	–	–	–	–	–	–	EC50 [1]: 0.162 nM; EC50 [2]: 0.131 nM; EC50 [3]: 0.842 nM; IC50 [4]: 2.68 nM; EC50 [5]: 0.5 nM; IC50 [6]: 0.853 nM; EC50 [7]: 0.103 nM; EC50 [8]: 0.689 nM
E1F1B1C3-CDRV1-IgG1 (YTE) (antibody) heavy: QVQLVQSGAEVKKPGASVKVSCKASGYTFTSNAMHWVRQVPGQGLEWMGWIKAGNAEIKYSQKFQGRVTITRDTSATTAYMELSSLRSEDTAVYYCARGDYYYYYMDVWGKGTTVTVSSASTKGPSVFPLAPSSKSTSGGTAALGCLVKDYFPEPVTVSWNSGALTSGVHTFPAVLQSSGLYSLSSVVTVPSSSLGTQTYICNVNHKPSNTKVDKKVEPKSCDKTHTCPPCPAPEAQGGPSVFLFPPKPKDTLYITREPEVTCVVVDVSHEDPEVKFNWYVDGVEVHNAKTKPREEQYNSTYRVVSVLTVLHQDWLNGKEYKCQVSNKALPAPIEKTISKAKGQPREPQVYTLPPSRDELTKNQVSLTCLVKGFYPSDIAVEWESNGQPENNYKTTPPVLDSDGSFFLYSKLTVDKSRWQQGNVFSCSVMHEALHNHYTQKSLSLSPG light: DIQVTQSPSSLSASVGDRVTITCRASQSISDFLNWYQQKPGKAPKLLIHAASSLQAGVPSRFSGSGSGTDFSLTINSLQPEDFATYYCQQSYSTPLSFGGGTKVEIKRTVAAPSVFIFPPSDEQLKSGTASVVCLLNNFYPREAKVQWKVDNALQSGNSQESVTEQDSKDSTYSLSSTLTLSKADYEKHKVYACEVTHQGLSSPVTKSFNRGEC	no binding (tested: antigen starting at 200 nM)	0.824	0.00105	1.28e+06	0.573	0.264	0.179	no binding (tested: ~67 nM)	0.2	2.81	0.002	713000	0.106	86.7	0.27	EC50 [10]: ~38.6 nM; Kd [14]: 26.8 nM; Kd [21]: 651 nM
E1F1B1C3-CDRV1-IgG1 (antibody) heavy: not shown light: DIQVTQSPSSLSASVGDRVTITCRASQSISDFLNWYQQKPGKAPKLLIHAASSLQAGVPSRFSGSGSGTDFSLTINSLQPEDFATYYCQQSYSTPLSFGGGTKVEIKRTVAAPSVFIFPPSDEQLKSGTASVVCLLNNFYPREAKVQWKVDNALQSGNSQESVTEQDSKDSTYSLSSTLTLSKADYEKHKVYACEVTHQGLSSPVTKSFNRGEC	no binding (tested: antigen starting at 200 nM)	0.344	0.000402	1.17e+06	0.488	0.27	0.148	no binding (tested: ~67 nM)	0.248	1.17	0.000907	773000	0.129	~2930	0.27	EC50 [23]: ~954 nM; Kd [24]: 56.7 nM

Reference: patent US20250250355A1 (BIOSION, published 2025)
